Measured values published in patent publication US20260125455A1 (CLEVELAND CLINIC FOUNDATION, published 2026).

B1: MoC601 HuG4K (chimeric C601 antibody) (antibody, human IgG4 S228P, kappa, V domains shown)
VH: QVQLQQSGAELVKPGASVKISCKASGYAFSDYWMNWVKQRPGKGLEWIGQIYPGDDDTNYNGKFKGKATLTADKSSSTAYMQLSSLTSEDSAVYFCAREGYYGYTYVEYFDVWGTGTTVTVSS
VL: QIVLTQSPAIMSVSPGEKVTLTCSASSSVSYMHWYQQKSGTSPKRWIYDTSKLASGVPARFSGSGSGTSYSLTISSMEAEDAATYYCQQWTSNPLTFGAGTKLELRR
notes: also called chimeric antibody; chimeric 1C9
B2: C601HFKC4 HuG4K (antibody, human IgG4 S228P, kappa)
heavy: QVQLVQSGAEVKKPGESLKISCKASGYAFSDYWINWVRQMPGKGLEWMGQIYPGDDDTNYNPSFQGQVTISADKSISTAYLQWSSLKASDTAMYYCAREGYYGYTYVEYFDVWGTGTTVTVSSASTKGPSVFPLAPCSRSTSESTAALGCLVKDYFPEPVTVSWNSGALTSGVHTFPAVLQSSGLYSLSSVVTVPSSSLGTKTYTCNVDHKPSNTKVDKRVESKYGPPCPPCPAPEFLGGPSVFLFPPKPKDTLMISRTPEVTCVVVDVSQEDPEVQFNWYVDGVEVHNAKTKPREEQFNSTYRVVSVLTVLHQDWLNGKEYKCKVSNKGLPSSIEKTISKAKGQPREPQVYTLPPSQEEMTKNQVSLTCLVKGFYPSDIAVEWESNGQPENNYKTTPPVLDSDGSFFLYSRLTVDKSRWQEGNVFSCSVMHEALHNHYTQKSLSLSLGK
light: QIVLTQSPATLSLSPGERATLSCRASSSVSYLHWYQQKPGQSPRLWIYDTSKRATGIPARFSGSGSGTDYTLTISSLEPEDFAVYYCQQWTSNPLTFGQGTKLEIKRTVAAPSVFIFPPSDEQLKSGTASVVCLLNNFYPREAKVQWKVDNALQSGNSQESVTEQDSKDSTYSLSSTLTLSKADYEKHKVYACEVTHQGLSSPVTKSFNRGEC
notes: also called 3713; clone 3713

Legend:
[1] = biological target: T1, human complement protein C6 (human, UniProt P13671 22-934); test: ELISA, purified protein, anti-human IgG (Fab-specific) detection
T1 construct: also called human C6; C6 antigen
T1 sequence (P13671 22-934 limits assumed): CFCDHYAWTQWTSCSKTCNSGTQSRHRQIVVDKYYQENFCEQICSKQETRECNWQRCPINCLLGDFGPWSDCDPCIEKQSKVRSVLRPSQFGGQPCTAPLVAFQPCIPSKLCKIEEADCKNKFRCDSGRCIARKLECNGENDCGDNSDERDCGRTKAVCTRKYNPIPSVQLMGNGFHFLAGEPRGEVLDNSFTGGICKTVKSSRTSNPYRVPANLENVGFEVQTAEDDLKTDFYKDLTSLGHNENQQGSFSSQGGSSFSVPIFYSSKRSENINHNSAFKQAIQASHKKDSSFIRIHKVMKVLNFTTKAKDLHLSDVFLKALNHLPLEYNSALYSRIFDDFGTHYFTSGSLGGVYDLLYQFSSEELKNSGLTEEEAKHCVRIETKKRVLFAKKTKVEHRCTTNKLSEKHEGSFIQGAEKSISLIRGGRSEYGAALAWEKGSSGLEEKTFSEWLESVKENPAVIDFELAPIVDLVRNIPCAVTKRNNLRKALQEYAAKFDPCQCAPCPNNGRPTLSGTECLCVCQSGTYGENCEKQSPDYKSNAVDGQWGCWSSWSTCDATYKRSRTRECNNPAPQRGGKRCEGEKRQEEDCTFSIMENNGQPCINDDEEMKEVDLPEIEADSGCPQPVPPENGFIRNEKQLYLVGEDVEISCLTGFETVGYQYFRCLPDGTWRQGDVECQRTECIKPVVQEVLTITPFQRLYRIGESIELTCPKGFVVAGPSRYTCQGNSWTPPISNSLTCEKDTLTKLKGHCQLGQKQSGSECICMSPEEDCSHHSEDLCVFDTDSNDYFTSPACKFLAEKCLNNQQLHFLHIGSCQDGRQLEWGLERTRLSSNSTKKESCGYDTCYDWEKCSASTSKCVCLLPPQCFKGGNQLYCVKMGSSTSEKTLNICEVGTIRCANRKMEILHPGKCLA
Protocol: The binding of the purified chimeric molecules, MoC601 HuG4K and MoC601 HuG1KFab, was also confirmed by ELISA, where the anti-human IgG (Fab-specific) secondary reagent was used. The control mouse antibody bound as previously (EC₅₀ 0.11 nM). The EC₅₀ for purified MoC601 HuG4K (0.27 nM) was similar to that obtained for the MoC601 HuG4K supernatant sample above. […] The EC₅₀ value for the Fab molecule (0.48 nM) was higher than for the antibody, which would be expected since the Fab is unable to bind bivalently to the antigen on the well. A C6-binding assay was also set up on the Octet RED384 instrument. […] However, MoC601 MoG1K could be stably loaded onto anti-mouse Fc (AMC) biosensors. Concentrations of the mouse and chimeric antibodies were adjusted to give similar levels of loading on to the AMC and […]

[2] = biological target: T1, human complement protein C6; test: BLI (Octet), full kinetics, C6 0.16-10 nM, 1:1 fit
Protocol: For two of the best performing antibodies, C601HFKC4 HuG4K (aka 3713) and C601HFKI HuG4K, a full kinetic experiment was run using seven concentrations of C6 (0.16-10 nM) and association and dissociation steps of 20 min. The datasets were processed by subtracting the no antigen controls and the data were fitted to a 1:1 binding model. Binding curves giving Req/Rₘₐₓ ratios>90% or showing poor fitting were excluded from analysis.

[3] = biological target: T1, human complement protein C6; test: C6-binding ELISA, A650 nm; sample 'mouse serum' (28 days at 37 C)
Protocol: For the serum stability assessment, samples of the purified candidate antibodies are normally incubated in mouse, human and cynomolgus serum at 37 C for 28 days and then tested in an antigen-binding ELISA. Since the anti-C6 antibodies are expected to bind to both human and cynomolgus C6 but not mouse C6, we anticipated that incubating in human or cynomolgus sera would reduce ELISA binding due to occupation of the antibody binding sites by C6 protein from the sera. Therefore, the chimeric and humanized antibodies were tested with human and mouse sera and with human sera from which the C6 protein has been depleted. The C6-binding ELISA was then used to compare the binding abilities of the C601 antibodies that had been incubated in the 3 different sera to antibody samples that were incubated in PBS at 37 C or kept at 4 C (non-incubated).
The Uncle instrument (Unchained Labs) was used to monitor unfolding via intrinsic fluorescence and aggregation by static light scattering across a temperature gradient to obtain melting temperatures (Tₘ). […] Isoelectric points were determined by capillary isoelectric focusing using a PA800+ (Beckman Coulter). […]

Binder | EC50 [1] [nM] | Kd [2] [nM] | koff [2] [s⁻¹] | kon [2] [M⁻¹ s⁻¹] | EC50 [3] [nM]
B1 | 0.27 | – | – | – | –
B2 | – | 0.11 | 0.00013 | 1.19e+06 | 0.15
